# Ends that are not written are not given here.
# Columns and labels:
# Solubility in water = assay type: physicochemical; conditions: previous studies
# PSMA dimer = PSMA dimer (Homo sapiens, UniProt Q04609); test: Phage-based ELISA, binding to PSMA dimer
# Experimental: In a phage-based ELISA, specific wells of a 96-well microtiter plate (Nunc Maxisorp) were coated with 100 μL/well of a solution of PSMA (5.56 or 11.1 nM) monomer or dimer protein diluted in PBS. The plate was incubated for 1 h on a shaker at room temperature. The coating solution was removed, and the wells were blocked with 320 μL/well of 0.2% w/v solution of BSA in PBS for 30 min, and washed three times with 300 μL/well of wash buffer PT (0.05% TWEEN-20 in PBS). […] The wells on the ELISA plate were then incubated with the phage samples (100 μL/well) for 1 h. The wells were washed five times with PT and then incubated with horseradish-peroxidase-conjugated anti-M13 antibody (100 μL/well, 1:5000 dilution in PBT) for 30 min. The wells were washed three times with PT, and two times with PBS. […] Following an appropriate incubation time, HRP activity was measured spectrophotometrically at 450 nm using a microtiter plate reader (Bio-Tek).
# Phage-based wrapping ELISA: Phage (5 nM in 225 μL) and 2 μL of the purified cycloaddition reaction product, KCS-1/2 (308.7 μM) in water: acetonitrile (60:40), were mixed and serially diluted in PBT. […] Levels of phage binding were quantified as described above.
# PSMA = PSMA (Homo sapiens, UniProt Q04609); test: Electrochemical impedance biosensing with virus-PEDOT films; assay type: binding; conditions: PBF-TWEEN
# Experimental: Biosensing with Virus-PEDOT Films. To explore whether these wrapped virus particles could be exploited to create virus-electrode biosensors with a higher sensitivity for PSMA, films of PEDOT were prepared on gold electrodes by electropolymerization in the presence of phage-2 (FIG. 28). […] SEM imaging confirms incorporation of phage into the bioaffinity matrix; both filament-like and less extended features having dimensions consistent with phage integrated as rope-like bundles into the polymer at various angles to the film (FIGS. 4B-4C) were observed. The KCS-1 wrapper was then applied in vitro simply by exposing the resultant phage-2 film for a short time to an aqueous solution of the wrapper. For the biosensing measurements, only the highest affinity ligand combination of phage-2 wrapped with KCS-1 was used, and it was studied in comparison to phage-2 films.
# EIS To Quantify PSMA Binding. […] The real component of the impedance, R, in particular, increases upon PSMA binding. […] The films incorporating phage-2 wrapped with KCS-1 provide higher sensitivity for PSMA detection than films incorporating unwrapped phage-2 (FIG. 4F). For example, the relative impedance change, ΔR/Ro, at each concentration of PSMA is 3-fold higher. […]
# Chain of PSMA dimer (Q04609 44-750 limits assumed): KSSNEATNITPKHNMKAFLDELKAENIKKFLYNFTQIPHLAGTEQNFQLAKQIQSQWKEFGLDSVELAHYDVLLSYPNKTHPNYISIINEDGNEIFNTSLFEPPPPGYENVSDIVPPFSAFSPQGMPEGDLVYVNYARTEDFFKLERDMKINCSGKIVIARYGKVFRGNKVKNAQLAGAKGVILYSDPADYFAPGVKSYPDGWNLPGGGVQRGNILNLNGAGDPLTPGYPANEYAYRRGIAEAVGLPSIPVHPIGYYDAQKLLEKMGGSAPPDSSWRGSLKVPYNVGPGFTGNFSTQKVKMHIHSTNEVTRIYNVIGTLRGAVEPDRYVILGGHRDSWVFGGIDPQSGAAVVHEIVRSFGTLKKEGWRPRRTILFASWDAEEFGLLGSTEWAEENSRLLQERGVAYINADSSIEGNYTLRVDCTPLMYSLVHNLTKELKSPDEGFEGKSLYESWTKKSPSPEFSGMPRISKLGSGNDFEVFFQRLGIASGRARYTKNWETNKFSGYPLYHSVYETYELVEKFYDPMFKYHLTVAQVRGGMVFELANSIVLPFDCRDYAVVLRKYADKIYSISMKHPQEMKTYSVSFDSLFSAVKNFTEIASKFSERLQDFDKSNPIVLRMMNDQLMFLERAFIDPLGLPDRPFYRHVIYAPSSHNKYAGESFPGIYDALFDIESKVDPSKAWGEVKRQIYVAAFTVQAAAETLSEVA
# Chain of PSMA (Q04609 44-750): as the sequence (Q04609 44-750 limits assumed) above
Substance,solubility in water (Solubility in water),relative binding affinity to PSMA dimer (PSMA dimer; phage-based ELISA),binding to PSMA by PEDOT film (negative controls) (PSMA),"increase in apparent affinity to PSMA versus other wrapper concentrations (PSMA dimer; 2.7 μM KCS-1, FIG. 7) [%]"
"peptide 1: PSMA-binding peptide ligand, amino acid sequence CALCEFLG (SEQ ID NO: 1)",limited solubility in water,much lower apparent affinity for PSMA than peptide 2,,
KCS-1: chemically synthesized wrapper: K14 oligolysine click-linked to PSMA ligand 1 (peptide 1 KKKKKKKKKKKKKK; peptide 2 KKKCALCEFLG; cysteine pairing not given here; also: K14 oligolysine click-linked to PSMA ligand 1),,,no significant binding to PSMA,~15
